Data reported in the DeepSol protein solubility set.

Test: soluble on expression in E. coli; label from the status in PepcDB or PDB records

Row | Sequence | soluble on expression in E. coli
1 | MGSDKIHHHHHHMDARSLISLIPSLSAYKWYGKVTRVIGLTIEAKGPQASIGELCYILVGKQGTKVMAEVVGFKEERVLLMPLNGTAEIAPGSLVEGTGRPLQVKVGYSLIGHVIDGCGRPLTGEALPNGLTPYPTDNPPPNPISRPRIKEAMHLGVRAIDGLLTVGKGQRVGIFAGSGVGKSTLLAMLAKNAAADLNIIALIGERGREVKDFIERDLGEDGLRRSIIVVATSDQPALMRIKGAMTATALAEYFRDQGLHVNLMMDSVTRFAMAQREIGLAVGEPPTTKGYTPSVFALLPKLLERAGTNGKGSITGFYTVLVDGDDLNEPISDTVRGILDGHFVLDRELANKGHYPAINILKSVSRVMNDIVTDEQKRAAEHVRSLLSVYKESEDLINIGAYKRGSSKQIDEAIERQPEVISFLRQNTDEVAIAEHSIQQLIQAFGKGD | not soluble
2 | MLSSSEKVAGQGVSGAYRELVRLLHRAAKDQLIVTENLPIEADVTHFHTIDFPYYLSTFQKKRSGRKIGYVHFLPATLEGSLKIPFFLKGIVKRYVFSFYNRMEHLVVVNPMFIEDLVAAGIPREKVTYIPNFVNKEKWHPLPQEEVVRLRTDLGLSDNQFIVVGAGQVQKRKGIDDFIRLAEELPQITFIWAGGFSFGGMTDGYEHYKKIMENPPKNLIFPGIVSPERMRELYALADLFLLPSYNELFPMTILEAASCEAPIMLRDLDLYKVILEGNYRATAGREEMKEAILEYQANPAVLKDLKEKAKNISREYSEEHLLQIWLDFYEKQAALGRK | not soluble
3 | ENKDNKGQIKTLDRDGQSITSYSFFAKNGDNVEKINVEVDQRQLSKDESLKLMENSRNKLVKLVLDKNKSANHIDKPLNLIREIPDTDISVTWDISDSRVLNYDGQIMSDVSQEGTIVNLTANMELNELTLSYTFAVNVFPRNYKGDIQEAVQEYINSQDSEQKKIFLPENISGEKISYYKSASK | soluble
4 | MPMVRNPMFLRMLGGLALALMLSAGRVATADTGTEAARAVVDKLNGALIDVMRNAKQLGYQGRYKKLDPIVREVFQFEAVAQIALGAHWKTLNDDQKREFVKKLTELSIATYAAQFNSYAGEQFQYDSDQAVKPDRVVVRYKMVAPKETPVKFDYMVNQFDGKWEIINIVVDGISDLALKKAQYTSVIDREGFDVLMSKLTQKITDYANNENNSKSLEHHHHHH | soluble
5 | MGSDKIHHHHHHMIGFEELNLQPGTRLQLMRHRGRTPVQYLSTFIGMERNEYLLLRLPKAQGTFLTFYDGEKVTVRVFSGVMISSFDASVIQTIHHPLNCLCISFPHAIQVKKIRREMRIKVDIEGRLGLQDRTILPVKLTNISATGCQILVDRDIGKVDGQVVLNFNIAQLHDDETSAMTLEAKVRNVVPAGLSGGASFLAGLEFVALESNVQLLVRHYVYECLVDRRQNLV | not soluble
6 | MGSDKIHHHHHHMTKARDDRYNFGFLDENTKRMLRRSLLKAVAIPGYQVPFGSREMPLPYGWGTGGIQLTASVIGRDDVLKVIDQGADDTTNAVNIRRFFGRVAGVATTTRTADATLIQTRHRIPETPLKPGQILIFQVPEPEPLRTLEASEVETRKLHAHQEYGLMHVKLYEDIARFGHIATSYDYPVMVNDRYLASPSPIPKFDNPKLDMNPALLLFGAGREKRLYAIPPYTKVESLAFDDHPFEIQSWQQGCAICGSHDSYLDEIVIDDAGSRMFVCSDTDYCQREKQA | not soluble
7 | MGSDKIHHHHHHMKKYSLTPAMLEVCKEYNFFSDVSGFMPLTSENIKEIKIGKKFAYSHQDNNKPTHQKLSKIIFENFLSNIPLNQSAIAYVKKKSYFDFIEPHRNNYFFLRIDLKDFFHSISEDLLKRTLSDYFSSESLSETIKQSNIDAIFTFLTVNLKSDSSNVKFLDKKILPIGFPLSPNLANIVFRKTDLLLEKLCDMHGVTYTRYADDMLFSSRGIMEKNLLFRKNNNYKKPYIHSDNFLSEIKYLVSIDGFFINHNKTIKSVNTLSLNGYTISGTNFPDIEGKIRLSNKKTKIIEKVIHEININPDDKVTFEKCFKKEFPKPKYEKNRDNFINNLCTIKINQKLLGYRSYLISIIKFNNKFNCISESSEDKYNTLLSKIENVIKKRIK | not soluble
8 | GMKSQWECFLQNLGVWEGSFSNFSPEGTLLNDTSSRLCLEGLNNNQTVRLTLSRSGKDDVIREFRSVGGGLLFFENGSFSEGLIQLGPFSEFGGELAFVHENRRLRLVQLFDRNGHLNGLTLIREHLAGTPVAERPLLQINDLLGEWRGQAVTIYRDLRPPDIYSTTLKIQLDDAGRLMQSTSFGERTITSTATIKGSIVLFDQDPEKQVQVLLLPDGASATSPLKVQLRQPLFLEAGWLIQSDLRQRMIRSYNDKGEWVSLTLVTEERV | soluble
9 | RFNLFNYREATLIADYGHNPDAMEALVCAIDHIPAKKRTVVISAAGDRRNEDIRLQTRILGDVFDEVVLFQDKCQRGRADGEVLGLLREGLENAKRVRKVSEIRGEFKAIDTALTNLEAGELCLILIDQ | not soluble
10 | MTPGVDGVNKTMLQARLAVELQILRDELLSGHYQPLPARRVYIPKSNGKLRPLGIPALRDRIVQRAMLMAMEPIWESDFHTLSYGFRPERSVHHAIRTVKLQLTDCGETRGRWVIEGDLSSYFDTVHHRLLMKAVRRRISDARFMTLLWKTIKAGHIDVGLFRAASEGVPQGGVISPLLSNIMLNEFDQYLHERYLSGKARKDRWYWNNSIQRGRSTAVRENWQWKPAVAYCRYADDFVLIVKGTKAQVEAIREECRGVLEGSLKLRLNMDKTKIPHVNDGFIFLGHRLIRKRSRYGEMRVVSTIPQEKARNFAASLTALLWKVRISGEILLGLEHHHHHH | soluble
11 | MGSDKIHHHHHHLGFGAPKISNEEERLRALAEYRILGTQPEQCYDDITKIASLTCGTPISLMSLVDTDTQWFKSMCGFETKETSRDVSFCAHAIASSEPLIVEDALLDERFKSNPLVVEEPKIRLYAGFPLQTPNDQRIGTLCVIDRKPGHLSDHQHQIMEALSRQVVTLLELRKRSIRLLDALTHMHNTEGILTTCSYCKEVRDSDGEWQHLEKYLSKIADIRFSHGICDLCMEKHFPDVLEVWSDDKLDLNSKKNKPECKKSN | not soluble
12 | GNYPRNVGLSPLSGVDPSEVFDVTPYAVATDKYFIKNATTYHLPRKLKVSYSNCYTDTAHCSIQDLGFVATLKNDEPYFRVFLGGGLGKQPKVALELDELIKPKDALYCVEGMIKFFMDYGNYENKNRARVRYMVESLGEELFLEKFKEYYKLEKENGSLELNI | not soluble
13 | MGSDKIHHHHHHMSTFIFPGDSFPVDPTTPVKLGPGIYCDPNTQEIRPVNTGVLHVSAKGKSGVQTAYIDYSSKRYIPSVNDFVIGVIIGTFSDSYKVSLQNFSSSVSLSYMAFPNASKKNRPTLQVGDLVYARVCTAEKELEAEIECFDSTTGRDAGFGILEDGMIIDVNFNFARQLLFNNDFPLLKVLAAHTKFEVAIGLNGKIWVKCEELSNTLACYRTIMECCQKNDTAAFKDIAKRQFKEILTVKEE | not soluble
14 | GAFGWEQDRGAPFSGRSPRILTRMTDAPRPTAGADAPARPPAAPLVAPNFITEIIERDLEAGKYPRVVTRFPPDPSGYAHLGHVFASLLDFNTARQYGGQFNLRMDDTNPELARQEYVDSIADDLKWLGLDWGEHFYYASDYFDRYYAYAEQLIRQGDAYVESVSPEELSRLRGNATTPGTPSPYRDRSVEENLDLLRRMKAGEFADGEHVLRAKIDLTAPNMKLRDPVLYRIVNKPHFRTSDEWHIYPAYDFEHPLQDAIEGVTHSMCSLEFVDNRAIYDWLMEKLNFDPRPHQYEFGRRGLEYTITSKRKLRELVQAGRVSGWDDPRMPTLRAQRRLGVTPEAVRAFAAQIGVSRTNRTVDIAVYENAVRDDLNHRAPRVMAVLDPVKVTLTNLDGEKTLSLPYWPHDVVRDSPDGLVGMPGGGRVAPEEAVRDVPLTRELYIERDDFSPAPPKGFKRLTPGGTVRLRGAGIIRADDFGTDEAGQVTHIRATLLGEDAKAAGVIHWVSAERALPAEFRLYDRLFRVPHPEGENADVEDDSAGPAEHEAEPGAGQETAPVSQGFMRYLTPDSLRVLRGYVEPSVAGDPADTRYQFERQGYFWRDPVELERVDSREDALVFGRIITLKDTWGKQGGGTQQKAEGKKRPSTKGRGPDEVRGEGSSSPAKAHAPKAQPLTPEQDAEFTRLLGLGASEGDARTIARDPALLAFVGGAAPGDTFAQVASWTVNELVAGLRAGEVKVRAADLAPLAEGVASGQLSARIAREALARAAASGDAPLTIIEREGLNAGLSAEALQQVVAQVIAANPDKAEAYRGGKTALLGFFTGQVMRATAGKADPQALAAALKDALA | soluble
15 | MRALSSLLLTLLLAGPAFAEPSAELQEPLAGWRYSGLLDRTEQDRVAYPTPPIDRGIQRNRTLIEGQLKAIGHLRQPHSLSVNGNPLNLYTDEQGRFARPYAFGAGSNSVEVRSSEGKPLKRVQFYEANLNKTPPRIRVVLGWDDPKAELDMHIITPDGQHAFFGHPGLTNGGGLDPDGVDGPGPEMFTMTAPLRGTYLIYVNYWGNFGSGGYNFDEGSNQNEVITSQINLILNENTVDEKRETFIVPMRAIGDLLLVKSFNYLEHHHHHH | soluble
16 | MDTLGLVESRSIAAGVNLADGMVKVAQVELVRAGTICSGRYFICLGGDRQAVQTAVSHAEQSGSALAGSYVISGVSPQVLAVLKKSVQPGTPGALGVVECRTVSAGIAAADAAVKRSGISLLRLVTGQGINGKSYFVFSGDVASVQEAADAAKTALGRHLIESVVIARPDASVVRALTSGVR | not soluble
17 | MGSDKIHHHHHHMLTGHHAPVRAYDAHASSNSSTGFRGRLRLSVATTERQCSMIIAHLSDLHIRETGKPFASGNVDCTARAAQAFERVANMTPRPDMMVVTGDLADSGQIGEYQLLKELTEGLPFPVHLALGNHDIRENFLAVFPEKKGPGGFVQFCVEHDKLRVIGLDTLVEGEGLGRLCSERLSYLRDCLQERPNTSTLILLHHPPFAFGGGIYDAVRLIDGARELGEIITANKQVVRLLCGHHHRAIDCLWNGTLASVAPSVVSSCHLQLGDVRVFKNINEPPAFKLHVLVPESGFVSHNVFVEDFGPAYENIPDPNYQALASMRKQTALAASR | not soluble
18 | MIDISHGHTSCSSHRSSSLPSVFWKIHLSPPLPSFKFKKSTESTQRQTIPKFSSPASSLAPSTPLWSLSSCLLVSEVSFWPGAGFLYNDLVCLDREDHCLSNSASHSCG | soluble
19 | MGSDKIHHHHHHMAKFDIITIEDKIQQLLEDGFDQASFIYEFLSFYDISKTAITRIRKEQSGEIKNKLYYKTVPTDKSVVAGVAEIEEAIKDKKSQPRYIIVTNFVDFAAKDTKTFDTLQIPFKDLPTYADFFLAWNGVEKVDYAKENPADIKAAERFTRLYDELKKINHFDDRSQEEKEFNLFLIRLLFLLFAEDTEIMKKGIFTNAIKTRSREDGSDLNTLFNQIFASLDIANRLSQENWLQEFPYVNGKLFTDASTDLVFDKKTRKLILEAGELLNWNEINPDILGAMIQTVASSEHRSSSGMHYTSVENIMKVIKPLFLDELTANFQTIVDKINENEDKDITERTRRENRAAYEKELSTLHEHLSKIKFFDPACGSGNFLIITYKELRRLEIRLLKALRELRQDGKIDFFETSKISLNQFYGIELDDFAHEVARLSLWIAEYQMNLEALNEINLQSAFLPLRDAGNITQGNALRLDWDKVVPHTPTDEIYLIGNPPYIGAKIAK | not soluble
20 | MGSDKIHHHHHHMNDYLDDYEFNNLDFYRKNHGLQLYYNWSGEICWQETPDKPQEKLFSIIGMNATKVFLKPDPEHGEVGYRINRELGLFCDPDTQEILHSWKSPTASQPVPVVHIANRIVQGSVKPKKFVIPKGKGYITSVMEIPLEYPHPLAGDSKYLDYCPGEKFKGVEYFISNTCRPDATEVPPAKWARDCPWMPWMKLGYAHPAKLRFETTIFRVDSFEQLHPSLVNLVREKVPIYEFTPTESDEPNVTSIQYFKKNFESYLRGDIFPLEERY | not soluble
